Target: the molecule itself
Assay: crystal structure

B1: keratin 1-keratin 10 helix 2B heterodimer (K1-K10-2B) (complex, human)
chain 1: ESLYQSKYEELQITAGRHGDSVRNSKIEISELNRVIQRLRSEIDNVKKQISNLQQSISDAEQRGENALKDAKNKLNDLEDALQQAKEDLARLLRDYQELMNTKLALDLEIATYRTLLEGE
chain 2: EAWFNEKSKELTTEIDNNIEQISSYKSEITELRRNVQALEIELQSQLALKQSLEASLAETEGRYCVQLSQIQAQISALEEQLQQIRAETECQNTEYQQLLDIKIRLENEIQTYRSLLEGE
  binding result: binds

— publication PMC5514376 (The Journal of investigative dermatology, 2016)
